Data reported in US20150132310A1.

What was measured:
[1] = target: human recombinant Mac-1 (CD11b/CD18, integrin alphaM/beta2), R&D Systems (human) (UniProt P05107); assay: SPR (Biacore T100), Mac-1 immobilised on CM5 chip, LukAB as analyte, multi cycle kinetics
SFPQ protein (human) = assay: His-LukAB pull-down from solubilised primary human PMNs on nickel resin, mass spectrometry
[2] = target: Putative uncharacterized protein LCN2 (human) (UniProt P80188); assay: as above
[3] = target: Endoplasmic reticulum resident protein ERp44 (human) (UniProt Q9BS26); assay: as above
[4] = target: ATP synthase subunit beta (human) (UniProt P06576); assay: as above
[5] = target: Hemoglobin subunit beta (human) (UniProt P68871); assay: as above
Chain of UniProt P68871 (P68871 2-147 limits assumed): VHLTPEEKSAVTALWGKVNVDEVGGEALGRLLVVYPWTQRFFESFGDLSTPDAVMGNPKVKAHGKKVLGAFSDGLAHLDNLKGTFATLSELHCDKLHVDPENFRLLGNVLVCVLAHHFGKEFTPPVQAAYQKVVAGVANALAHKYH

[6] = target: Heat shock 70kDa protein 1A (human) (UniProt A8K5I0); assay: as above
Cntm_P13645 = Cntm_P13645 (UniProt P13645); assay: as above
Chain of UniProt P13645 (P13645 whole entry): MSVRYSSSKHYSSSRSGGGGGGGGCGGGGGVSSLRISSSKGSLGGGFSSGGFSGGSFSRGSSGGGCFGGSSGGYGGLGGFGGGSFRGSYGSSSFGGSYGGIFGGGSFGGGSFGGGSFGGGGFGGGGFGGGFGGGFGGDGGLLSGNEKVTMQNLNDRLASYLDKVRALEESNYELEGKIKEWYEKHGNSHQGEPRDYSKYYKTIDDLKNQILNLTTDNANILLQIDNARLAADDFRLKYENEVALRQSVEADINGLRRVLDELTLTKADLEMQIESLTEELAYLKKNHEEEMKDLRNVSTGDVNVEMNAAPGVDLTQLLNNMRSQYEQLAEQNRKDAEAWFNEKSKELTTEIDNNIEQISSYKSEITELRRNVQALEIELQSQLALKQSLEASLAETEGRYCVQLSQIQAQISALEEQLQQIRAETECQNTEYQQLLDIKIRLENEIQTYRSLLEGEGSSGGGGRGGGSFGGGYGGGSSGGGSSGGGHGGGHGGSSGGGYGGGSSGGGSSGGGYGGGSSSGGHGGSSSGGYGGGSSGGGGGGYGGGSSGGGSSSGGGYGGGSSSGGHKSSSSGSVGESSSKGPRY

Malic enzyme (human) = Malic enzyme (human) (UniProt P23368); assay: as above
Chain of UniProt P23368 (P23368 19-584 limits assumed): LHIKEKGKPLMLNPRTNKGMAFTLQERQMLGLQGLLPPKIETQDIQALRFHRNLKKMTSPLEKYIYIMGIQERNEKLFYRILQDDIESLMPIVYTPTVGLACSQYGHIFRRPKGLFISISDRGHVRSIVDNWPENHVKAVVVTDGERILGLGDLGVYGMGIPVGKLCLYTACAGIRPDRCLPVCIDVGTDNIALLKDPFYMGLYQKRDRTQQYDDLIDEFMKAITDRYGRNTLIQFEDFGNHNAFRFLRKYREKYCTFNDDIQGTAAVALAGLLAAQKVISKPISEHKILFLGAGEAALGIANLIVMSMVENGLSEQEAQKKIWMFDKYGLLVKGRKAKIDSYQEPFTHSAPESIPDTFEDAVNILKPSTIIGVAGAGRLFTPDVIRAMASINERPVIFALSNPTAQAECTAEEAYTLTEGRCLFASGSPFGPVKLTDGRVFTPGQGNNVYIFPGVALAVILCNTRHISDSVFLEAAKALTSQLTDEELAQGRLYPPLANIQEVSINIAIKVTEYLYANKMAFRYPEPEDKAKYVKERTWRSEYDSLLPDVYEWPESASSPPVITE

[7] = target: Glyceraldehyde-3-phosphate dehydrogenase (human) (UniProt P04406); assay: as above
Alpha-actinin-1 (human) = Alpha-actinin-1 (human) (UniProt P12814); assay: as above
Chain of UniProt P12814 (P12814 whole entry): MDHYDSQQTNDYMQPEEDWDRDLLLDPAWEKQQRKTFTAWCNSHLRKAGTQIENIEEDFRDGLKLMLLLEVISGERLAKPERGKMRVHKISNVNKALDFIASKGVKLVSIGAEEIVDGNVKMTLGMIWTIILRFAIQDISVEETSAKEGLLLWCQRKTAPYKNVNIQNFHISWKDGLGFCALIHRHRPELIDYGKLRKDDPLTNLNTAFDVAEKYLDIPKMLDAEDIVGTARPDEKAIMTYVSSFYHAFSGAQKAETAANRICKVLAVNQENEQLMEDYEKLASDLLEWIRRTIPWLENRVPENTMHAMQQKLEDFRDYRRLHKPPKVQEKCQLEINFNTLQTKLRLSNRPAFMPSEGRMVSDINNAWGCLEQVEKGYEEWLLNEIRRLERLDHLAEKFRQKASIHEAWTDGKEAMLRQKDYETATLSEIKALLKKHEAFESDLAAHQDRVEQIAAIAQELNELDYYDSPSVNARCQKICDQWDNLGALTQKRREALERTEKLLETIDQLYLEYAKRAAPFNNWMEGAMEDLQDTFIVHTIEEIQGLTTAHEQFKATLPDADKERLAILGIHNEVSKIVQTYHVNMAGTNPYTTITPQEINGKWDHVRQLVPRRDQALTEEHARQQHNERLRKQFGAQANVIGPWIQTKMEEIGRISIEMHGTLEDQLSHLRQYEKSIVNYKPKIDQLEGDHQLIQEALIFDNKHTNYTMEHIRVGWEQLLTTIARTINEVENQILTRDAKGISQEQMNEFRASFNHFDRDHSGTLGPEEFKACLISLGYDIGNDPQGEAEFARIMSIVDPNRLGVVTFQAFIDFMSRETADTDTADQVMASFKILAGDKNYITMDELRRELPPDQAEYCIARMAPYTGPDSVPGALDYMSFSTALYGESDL

Coronin-1A (human) = Coronin-1A (human) (UniProt P31146); assay: as above
[8] = target: E3 ubiquitin-protein ligase CBL (human) (UniProt P22681); assay: as above
[9] = target: 6-phosphogluconate dehydrogenase (human) (UniProt P52209); assay: as above
Chain of UniProt P52209 (P52209 whole entry): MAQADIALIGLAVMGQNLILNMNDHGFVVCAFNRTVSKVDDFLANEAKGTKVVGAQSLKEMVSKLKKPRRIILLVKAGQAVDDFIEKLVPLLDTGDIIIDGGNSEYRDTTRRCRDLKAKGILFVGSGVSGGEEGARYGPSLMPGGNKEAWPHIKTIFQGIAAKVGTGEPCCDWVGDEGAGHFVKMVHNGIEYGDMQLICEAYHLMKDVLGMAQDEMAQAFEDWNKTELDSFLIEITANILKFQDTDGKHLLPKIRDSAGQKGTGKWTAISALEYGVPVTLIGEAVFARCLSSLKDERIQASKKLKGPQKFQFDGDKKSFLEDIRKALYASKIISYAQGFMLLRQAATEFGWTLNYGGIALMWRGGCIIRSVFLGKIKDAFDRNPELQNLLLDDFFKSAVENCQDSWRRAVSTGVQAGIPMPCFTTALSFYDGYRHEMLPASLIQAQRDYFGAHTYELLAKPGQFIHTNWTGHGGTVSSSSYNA

Actin (human) = Actin (human) (UniProt P63261); assay: as above
cDNA FLJ76817 (human) = assay: as above
Transketolase (human) = Transketolase (human) (UniProt P29401); assay: as above
Chain of UniProt P29401 (P29401 whole entry): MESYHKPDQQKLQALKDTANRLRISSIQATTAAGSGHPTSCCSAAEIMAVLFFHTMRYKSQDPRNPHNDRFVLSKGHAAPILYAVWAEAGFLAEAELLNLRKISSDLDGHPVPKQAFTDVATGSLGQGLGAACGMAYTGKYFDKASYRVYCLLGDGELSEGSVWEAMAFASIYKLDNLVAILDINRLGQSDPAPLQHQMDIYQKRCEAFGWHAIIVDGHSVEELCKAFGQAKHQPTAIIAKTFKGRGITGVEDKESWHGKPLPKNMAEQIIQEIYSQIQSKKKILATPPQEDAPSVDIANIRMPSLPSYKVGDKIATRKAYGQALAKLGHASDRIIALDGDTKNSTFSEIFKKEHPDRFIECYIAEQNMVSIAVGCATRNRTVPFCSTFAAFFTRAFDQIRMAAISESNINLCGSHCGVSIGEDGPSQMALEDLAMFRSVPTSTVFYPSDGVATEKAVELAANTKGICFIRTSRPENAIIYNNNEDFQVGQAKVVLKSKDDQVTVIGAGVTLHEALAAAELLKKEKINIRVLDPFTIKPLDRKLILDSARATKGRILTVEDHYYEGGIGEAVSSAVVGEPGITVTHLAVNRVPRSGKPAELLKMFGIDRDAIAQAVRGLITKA

Serum albumin (human) = Serum albumin (human) (UniProt P02768); assay: as above
Chain of UniProt P02768 (P02768 25-609 limits assumed): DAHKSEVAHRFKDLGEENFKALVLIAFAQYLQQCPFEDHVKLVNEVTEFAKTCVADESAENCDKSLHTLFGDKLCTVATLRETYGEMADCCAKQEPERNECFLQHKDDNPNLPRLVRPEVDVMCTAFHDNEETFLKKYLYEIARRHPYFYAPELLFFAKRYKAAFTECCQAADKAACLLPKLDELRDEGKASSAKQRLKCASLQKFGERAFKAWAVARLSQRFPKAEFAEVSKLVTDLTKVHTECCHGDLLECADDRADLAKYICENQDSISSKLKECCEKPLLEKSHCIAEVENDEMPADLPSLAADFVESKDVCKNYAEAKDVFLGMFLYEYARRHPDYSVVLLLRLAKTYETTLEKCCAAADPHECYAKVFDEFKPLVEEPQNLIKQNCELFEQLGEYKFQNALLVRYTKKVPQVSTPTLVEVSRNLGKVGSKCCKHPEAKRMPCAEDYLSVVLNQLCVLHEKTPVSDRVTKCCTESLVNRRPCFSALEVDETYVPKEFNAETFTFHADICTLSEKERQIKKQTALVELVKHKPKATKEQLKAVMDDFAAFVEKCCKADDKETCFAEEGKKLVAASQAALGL

[10] = target: Beta-adrenergic receptor kinase 1 (human) (UniProt P25098); assay: as above
Chain of UniProt P25098 (P25098 whole entry): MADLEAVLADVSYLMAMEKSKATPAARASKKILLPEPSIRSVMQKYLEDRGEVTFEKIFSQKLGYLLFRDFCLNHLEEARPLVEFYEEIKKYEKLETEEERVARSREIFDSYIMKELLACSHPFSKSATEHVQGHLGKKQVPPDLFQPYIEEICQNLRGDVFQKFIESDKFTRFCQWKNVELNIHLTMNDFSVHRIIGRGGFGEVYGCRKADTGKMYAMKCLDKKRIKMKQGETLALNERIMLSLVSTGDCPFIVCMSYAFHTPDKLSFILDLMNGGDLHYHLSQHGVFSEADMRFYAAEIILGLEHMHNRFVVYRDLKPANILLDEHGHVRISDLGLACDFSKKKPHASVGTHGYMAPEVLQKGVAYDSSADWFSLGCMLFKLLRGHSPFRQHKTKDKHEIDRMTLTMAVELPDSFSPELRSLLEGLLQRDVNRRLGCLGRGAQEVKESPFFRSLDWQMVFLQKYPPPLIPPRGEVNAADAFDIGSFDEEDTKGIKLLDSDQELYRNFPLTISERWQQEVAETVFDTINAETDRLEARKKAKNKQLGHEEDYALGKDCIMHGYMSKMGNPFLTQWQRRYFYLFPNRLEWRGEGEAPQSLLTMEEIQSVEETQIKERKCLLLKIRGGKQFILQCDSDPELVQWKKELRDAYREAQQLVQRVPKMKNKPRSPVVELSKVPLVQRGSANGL

Myeloperoxidase (human) = Myeloperoxidase (human) (UniProt P05164); assay: as above
[11] = target: Bactericidal permeability-increasing protein (human) (UniProt P17213); assay: as above
[12] = target: Protein tyrosine phosphatase (human) (UniProt P08575); assay: as above
Alpha-enolase (human) = Alpha-enolase (human) (UniProt P06733); assay: as above
[13] = target: Hemoglobin subunit alpha (human) (UniProt P69905); assay: as above
cDNA FLJ78440 (human) = cDNA FLJ78440 (human) (UniProt A8K494); assay: as above
[14] = target: human CD11b (Integrin alpha-M), full length (human) (UniProt P11215); assay: as above
[15] = target: Peptidoglycan recognition protein (human) (UniProt O75594); assay: as above
[16] = target: Pyruvate kinase isozymes M1/M2 (human) (UniProt P14618); assay: as above
[17] = target: human CD18 (Integrin beta 2) (human); assay: as above
Myosin-9 (human) = Myosin-9 (human) (UniProt P35579); assay: as above
Catalase (human) = Catalase (human) (UniProt P04040); assay: as above
cDNA FLJ55493 (human) = cDNA FLJ55493 (human) (UniProt B4DMF5); assay: as above
cDNA FLJ75120 (human) = cDNA FLJ75120 (human) (UniProt Q99536); assay: as above
CD63 antigen (human) = CD63 antigen (human) (UniProt P08962); assay: as above
Plastin-2 (human) = Plastin-2 (human) (UniProt P13796); assay: as above
cDNA, FLJ92148 (human) = cDNA, FLJ92148 (human) (UniProt B2R4M6); assay: as above
cDNA FLJ53963 (human) = assay: as above
[18] = target: Mitogen-activated protein kinase 1 (human) (UniProt P28482); assay: as above
Protein S100-A8 (human) = Protein S100-A8 (human) (UniProt P05109); assay: as above
Chain of UniProt P05109 (P05109 whole entry): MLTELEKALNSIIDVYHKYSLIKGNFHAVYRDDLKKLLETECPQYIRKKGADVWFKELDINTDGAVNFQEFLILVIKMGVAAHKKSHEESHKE

[19] = target: Glucose-6-phosphate isomerase (human) (UniProt P06744); assay: as above
[20] = target: Adipocyte plasma membrane-associated protein (human) (UniProt Q9HDC9); assay: as above
cDNA FLJ55635 (human) = assay: as above
[21] = target: Guanine nucleotide-binding protein G(i) (human) (UniProt P04899); assay: as above
[22] = target: Adenylyl cyclase-associated protein (human) (UniProt B2RDY9); assay: as above
[23] = target: human CD11b (Integrin alpha-M), full length (human) (UniProt P11215); assay: cell-based or functional assay
[24] = target: human recombinant CD11b I domain (N-terminal 6x-His, C-terminal 6x-glycine linker and 3x-Flag) (human) (UniProt P11215); assay: SPR
[25] = target: human recombinant CD11b I domain (N-terminal 6x-His, C-terminal 6x-glycine linker and 3x-Flag) (human) (UniProt P11215); assay: SPR (Biacore T100), human I domain immobilised on CM5 chip, LukAB as analyte, multi cycle kinetics

Chain of UniProt P80188 (P80188 21-198 limits assumed): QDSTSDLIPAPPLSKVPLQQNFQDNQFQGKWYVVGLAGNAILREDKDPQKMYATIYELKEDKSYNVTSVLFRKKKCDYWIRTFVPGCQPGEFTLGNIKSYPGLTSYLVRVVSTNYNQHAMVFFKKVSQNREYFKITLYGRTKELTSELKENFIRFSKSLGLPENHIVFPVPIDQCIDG

**Q.** Which results are given for “His-tagged LukAB (leukotoxin AB, purified recombinant from S. aureus Newman)”?
**A.** Kd [1]: 38.4 nM; # of peptides (SFPQ protein (human)): 4 peptides; # of peptides [2]: 5 peptides; # of peptides [3]: 4 peptides; # of peptides [4]: 5 peptides; # of peptides [5]: 5 peptides; # of peptides [6]: 5 peptides; # of peptides (Cntm_P13645): 10 peptides; # of peptides (Malic enzyme (human)): 5 peptides; # of peptides [7]: 6 peptides; # of peptides (Alpha-actinin-1 (human)): 3 peptides; # of peptides (Coronin-1A (human)): 6 peptides; # of peptides [8]: 3 peptides; # of peptides [9]: 3 peptides; # of peptides (Actin (human)): 7 peptides; # of peptides (cDNA FLJ76817 (human)): 3 peptides; # of peptides (Transketolase (human)): 4 peptides; # of peptides (Serum albumin (human)): 13 peptides; # of peptides [10]: 3 peptides; # of peptides (Myeloperoxidase (human)): 7 peptides; # of peptides [11]: 6 peptides; # of peptides [12]: 3 peptides; # of peptides (Alpha-enolase (human)): 3 peptides; # of peptides [13]: 4 peptides; # of peptides (cDNA FLJ78440 (human)): 8 peptides; # of peptides [14]: 17 peptides; # of peptides [15]: 4 peptides; # of peptides [16]: 9 peptides; # of peptides [17]: 12 peptides; # of peptides (Myosin-9 (human)): 3 peptides; # of peptides (Catalase (human)): 3 peptides; # of peptides (cDNA FLJ55493 (human)): 5 peptides; # of peptides (cDNA FLJ75120 (human)): 5 peptides; # of peptides (CD63 antigen (human)): 3 peptides; # of peptides (Plastin-2 (human)): 8 peptides; # of peptides (cDNA, FLJ92148 (human)): 4 peptides; # of peptides (cDNA FLJ53963 (human)): 3 peptides; # of peptides [18]: 5 peptides; # of peptides (Protein S100-A8 (human)): 5 peptides; # of peptides [19]: 3 peptides; # of peptides [20]: 5 peptides; # of peptides (cDNA FLJ55635 (human)): 7 peptides; # of peptides [21]: 3 peptides; # of peptides [22]: 4 peptides; percent depletion of CD11b+ HEK293T cells (CD11b transfected), 40 µg/ml LukAB, 2 hours, flow cytometry [23]: 80 to 90%; difference in Kd against the LukAB-murine CD11b I-domain interaction [24]: 8 to 9 logs; Kd [25]: 1.92 nM
